We go through 14 molecules from patent EP4775595A1 (Beijing Tuo Jie Biopharmaceutical Co. Ltd., dated 2026).

Where two headings read alike, the source gives them in different places.

For experiment [1], the target named is T1, hIGF-1R-ECD-avi-his (human IGF-1R extracellular region) (human, UniProt P08069 31-935).
T1 construct: It was captured on the chip through its His tag
As to the kind of experiment: SPR (Biacore T200), antigen captured by anti-His antibody on CM5 chip, antibody as analyte.

The target in experiment [2] is human IGF-1R on human non-small cell lung cancer cells (A549) (human, UniProt P08069 31-1367). As to the kind of experiment: cell-based or functional assay.
human IGF-1R on human non-small cell lung cancer cells (A549), sequence (P08069 31-1367): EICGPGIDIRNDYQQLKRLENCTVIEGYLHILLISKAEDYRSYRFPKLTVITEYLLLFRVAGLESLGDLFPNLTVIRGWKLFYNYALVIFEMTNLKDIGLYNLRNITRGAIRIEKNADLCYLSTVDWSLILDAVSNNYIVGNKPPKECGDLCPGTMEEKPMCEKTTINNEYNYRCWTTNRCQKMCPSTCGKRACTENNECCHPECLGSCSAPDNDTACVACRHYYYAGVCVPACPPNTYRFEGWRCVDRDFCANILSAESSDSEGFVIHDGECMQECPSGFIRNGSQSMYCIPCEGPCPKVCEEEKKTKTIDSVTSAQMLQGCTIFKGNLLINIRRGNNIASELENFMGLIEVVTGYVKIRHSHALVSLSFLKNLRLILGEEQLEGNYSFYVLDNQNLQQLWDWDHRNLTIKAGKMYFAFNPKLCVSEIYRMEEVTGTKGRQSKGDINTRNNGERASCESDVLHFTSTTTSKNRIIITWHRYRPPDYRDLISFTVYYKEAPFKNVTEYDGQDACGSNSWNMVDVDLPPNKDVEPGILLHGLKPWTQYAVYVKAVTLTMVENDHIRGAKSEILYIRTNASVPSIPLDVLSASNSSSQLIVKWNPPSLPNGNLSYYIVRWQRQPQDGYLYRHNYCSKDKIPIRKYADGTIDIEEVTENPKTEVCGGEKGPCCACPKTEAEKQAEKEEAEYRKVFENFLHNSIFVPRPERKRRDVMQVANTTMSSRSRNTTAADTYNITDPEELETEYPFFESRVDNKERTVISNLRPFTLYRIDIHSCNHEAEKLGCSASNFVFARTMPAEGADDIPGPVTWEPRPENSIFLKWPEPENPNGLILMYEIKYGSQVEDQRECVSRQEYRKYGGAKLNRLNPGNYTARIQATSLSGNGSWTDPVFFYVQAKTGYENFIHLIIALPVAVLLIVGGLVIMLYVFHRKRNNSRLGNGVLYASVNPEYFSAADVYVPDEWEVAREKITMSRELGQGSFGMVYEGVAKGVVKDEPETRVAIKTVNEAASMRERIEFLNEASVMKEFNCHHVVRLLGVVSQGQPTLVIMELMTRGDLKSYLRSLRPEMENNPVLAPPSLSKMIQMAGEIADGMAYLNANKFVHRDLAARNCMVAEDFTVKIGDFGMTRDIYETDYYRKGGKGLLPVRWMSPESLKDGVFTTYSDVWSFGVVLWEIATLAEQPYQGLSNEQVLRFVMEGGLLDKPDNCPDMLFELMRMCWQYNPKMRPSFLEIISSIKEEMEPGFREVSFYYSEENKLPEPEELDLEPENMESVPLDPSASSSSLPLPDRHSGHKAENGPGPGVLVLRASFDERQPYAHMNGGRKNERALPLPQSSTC
Experiment [3] addresses mouse IGF-1R on mouse myoblasts (C2C12) (mouse, UniProt Q60751 31-1373). The experiment can be described thus: cell-based or functional assay.
Experiment [4] addresses T1, hIGF-1R-ECD-avi-his (human IGF-1R …). The experiment can be described thus: SPR (Biacore T200), antigen captured by anti-His antibody on CM5 chip, antibody as analyte. This is another data set of the same source.
Experiment [5] concerns the target T2, mouse IGF-1R (Acro, Cat. IGR-M5223) (mouse, UniProt Q60751 31-936, limits assumed).
T2 construct: Bought reagent; also called murine IGF-1R
Described as above.

T1 sequence (P08069 other isoform, or with tags, fused parts or gaps limits assumed): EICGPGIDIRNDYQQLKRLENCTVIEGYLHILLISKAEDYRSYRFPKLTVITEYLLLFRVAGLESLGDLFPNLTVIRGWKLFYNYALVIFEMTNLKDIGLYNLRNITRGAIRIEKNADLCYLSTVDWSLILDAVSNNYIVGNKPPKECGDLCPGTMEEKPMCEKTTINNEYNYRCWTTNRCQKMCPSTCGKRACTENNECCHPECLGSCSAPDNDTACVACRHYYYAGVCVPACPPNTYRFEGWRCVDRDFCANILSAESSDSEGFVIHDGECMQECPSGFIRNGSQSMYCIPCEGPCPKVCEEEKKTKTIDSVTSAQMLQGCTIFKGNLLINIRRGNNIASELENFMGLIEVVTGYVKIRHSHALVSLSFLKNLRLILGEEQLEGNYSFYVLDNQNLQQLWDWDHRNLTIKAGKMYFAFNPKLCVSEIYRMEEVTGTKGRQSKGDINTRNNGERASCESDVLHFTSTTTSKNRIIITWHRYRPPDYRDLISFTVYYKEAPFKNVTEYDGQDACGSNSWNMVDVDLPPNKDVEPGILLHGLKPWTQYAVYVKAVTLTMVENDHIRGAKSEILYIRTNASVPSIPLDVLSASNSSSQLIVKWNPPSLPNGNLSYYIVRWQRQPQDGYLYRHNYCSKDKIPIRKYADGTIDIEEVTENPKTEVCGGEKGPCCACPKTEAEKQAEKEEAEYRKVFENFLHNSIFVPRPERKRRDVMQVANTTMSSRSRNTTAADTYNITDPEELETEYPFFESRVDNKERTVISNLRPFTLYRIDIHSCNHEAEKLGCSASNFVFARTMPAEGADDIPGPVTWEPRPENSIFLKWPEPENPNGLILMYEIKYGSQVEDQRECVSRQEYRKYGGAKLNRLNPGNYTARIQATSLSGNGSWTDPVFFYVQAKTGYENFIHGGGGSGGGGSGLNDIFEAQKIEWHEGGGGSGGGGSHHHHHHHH
T2 sequence (Q60751 31-936 limits assumed): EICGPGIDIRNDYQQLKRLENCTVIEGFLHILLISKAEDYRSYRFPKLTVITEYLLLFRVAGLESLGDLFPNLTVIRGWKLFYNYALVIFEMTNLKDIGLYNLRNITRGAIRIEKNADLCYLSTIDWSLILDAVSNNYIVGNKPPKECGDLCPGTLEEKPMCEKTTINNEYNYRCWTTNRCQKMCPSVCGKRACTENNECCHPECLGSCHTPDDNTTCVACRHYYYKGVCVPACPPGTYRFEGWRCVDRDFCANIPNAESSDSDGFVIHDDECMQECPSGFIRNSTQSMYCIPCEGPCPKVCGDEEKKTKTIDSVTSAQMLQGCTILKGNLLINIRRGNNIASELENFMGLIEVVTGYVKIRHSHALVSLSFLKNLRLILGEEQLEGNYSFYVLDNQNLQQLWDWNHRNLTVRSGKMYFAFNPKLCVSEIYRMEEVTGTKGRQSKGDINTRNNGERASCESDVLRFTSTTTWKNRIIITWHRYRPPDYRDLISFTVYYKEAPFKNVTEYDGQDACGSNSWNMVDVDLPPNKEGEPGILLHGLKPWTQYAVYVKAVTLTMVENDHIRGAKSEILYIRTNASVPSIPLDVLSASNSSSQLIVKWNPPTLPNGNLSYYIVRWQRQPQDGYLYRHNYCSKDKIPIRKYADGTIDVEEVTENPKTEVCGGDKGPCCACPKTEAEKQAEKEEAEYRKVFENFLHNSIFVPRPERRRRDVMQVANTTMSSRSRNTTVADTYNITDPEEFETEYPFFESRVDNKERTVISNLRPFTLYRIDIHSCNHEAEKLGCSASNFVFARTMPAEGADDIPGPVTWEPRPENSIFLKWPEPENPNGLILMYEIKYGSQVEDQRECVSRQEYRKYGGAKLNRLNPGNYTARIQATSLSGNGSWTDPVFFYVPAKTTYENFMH
mouse IGF-1R on mouse myoblasts (C2C12), sequence (Q60751 31-1373): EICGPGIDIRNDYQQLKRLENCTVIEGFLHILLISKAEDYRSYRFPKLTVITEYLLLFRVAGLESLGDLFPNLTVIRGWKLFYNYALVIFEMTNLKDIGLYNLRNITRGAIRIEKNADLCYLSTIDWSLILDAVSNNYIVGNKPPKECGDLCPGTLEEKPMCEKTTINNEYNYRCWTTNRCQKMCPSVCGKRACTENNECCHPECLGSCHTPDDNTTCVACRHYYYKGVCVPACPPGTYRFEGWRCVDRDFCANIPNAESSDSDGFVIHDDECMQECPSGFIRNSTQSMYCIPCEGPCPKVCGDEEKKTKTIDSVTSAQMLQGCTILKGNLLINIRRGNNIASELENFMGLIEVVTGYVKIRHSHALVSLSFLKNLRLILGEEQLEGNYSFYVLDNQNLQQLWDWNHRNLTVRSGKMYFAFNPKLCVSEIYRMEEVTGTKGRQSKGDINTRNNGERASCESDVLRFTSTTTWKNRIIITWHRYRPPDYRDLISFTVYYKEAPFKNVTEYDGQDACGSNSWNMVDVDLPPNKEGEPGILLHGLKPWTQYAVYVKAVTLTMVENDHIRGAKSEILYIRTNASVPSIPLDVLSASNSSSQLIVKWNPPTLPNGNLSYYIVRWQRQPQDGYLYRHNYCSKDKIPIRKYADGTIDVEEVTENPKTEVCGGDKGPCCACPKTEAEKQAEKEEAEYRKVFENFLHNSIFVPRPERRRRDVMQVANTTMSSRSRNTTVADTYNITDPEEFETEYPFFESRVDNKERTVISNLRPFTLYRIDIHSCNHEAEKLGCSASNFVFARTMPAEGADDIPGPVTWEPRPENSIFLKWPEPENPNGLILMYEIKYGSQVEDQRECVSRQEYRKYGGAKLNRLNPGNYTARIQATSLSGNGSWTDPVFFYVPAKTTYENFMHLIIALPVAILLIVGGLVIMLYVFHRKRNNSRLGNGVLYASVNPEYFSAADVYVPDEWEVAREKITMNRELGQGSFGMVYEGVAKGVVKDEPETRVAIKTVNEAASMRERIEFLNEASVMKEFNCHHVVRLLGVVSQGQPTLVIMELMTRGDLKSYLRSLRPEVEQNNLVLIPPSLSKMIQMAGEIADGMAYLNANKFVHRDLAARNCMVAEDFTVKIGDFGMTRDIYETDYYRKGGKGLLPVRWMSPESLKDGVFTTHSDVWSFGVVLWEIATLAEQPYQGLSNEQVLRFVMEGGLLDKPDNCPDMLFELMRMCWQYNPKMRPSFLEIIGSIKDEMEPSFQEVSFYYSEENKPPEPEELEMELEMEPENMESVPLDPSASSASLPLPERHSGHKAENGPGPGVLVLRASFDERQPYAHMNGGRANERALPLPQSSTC

B1: IG05-hu1 (VHH)
VHH: EVQLVESGGGLVQPGGSLRLSCTASGLTFGTFGMAWFRQAPGKEREGVSAISASSGRTYYADSVKGRFTISRDNSKNTLYLQMNSLRAEDTAVYYCAVRSKNGAGYGFWYEARLYGYWGQGTLVTVSS
notes: Humanized IG05; also called IG05-hul
In experiment [1], B1 had a Kd of 0.395 nM, a koff of 0.00072 s⁻¹ and a kon of 1.82e+06 M⁻¹ s⁻¹.

B2: IG05-hu2 (VHH)
VHH: EVQLVESGGGLVQPGGSLRLSCTASGLTFGTFGMAWFRQAPGKEREGVSAISASSGRTYYADSVKGRFTISRDNAKNTLYLQMNSLRAEDTAVYYCAVRSKNGAGYGFWYEARLYGYWGQGTLVTVSS
notes: Humanized IG05
B2: in experiment [1], binding was put at a Kd of 0.361 nM, the koff was found to be 0.000772 s⁻¹ and the kon stood at 2.14e+06 M⁻¹ s⁻¹.

B3: IG05-hu5 (VHH)
VHH: EVQLVESGGGLVQPGGSLRLSCAASGFTFGTFGMAWFRQAPGKEREGVSAISASSGRTYYADSVKGRFTISRDNSKNTLYLQMNSLRAEDTAVYYCAVRSKNGAGYGFWYEARLYGYWGQGTLVTVSS
notes: Humanized IG05
In experiment [1], B3 had a Kd of 0.258 nM, a koff of 0.000474 s⁻¹ and a kon of 1.83e+06 M⁻¹ s⁻¹.

B4: IG05 (VHH)
VHH: QVQLVESGGGLVQAGGSLRLSCTASGLTFGTFGMAWFRQAPGKEREGVSAISASSGRTYYADSVKGRFTISRDNAKNTLYLQMDALKPEDTAMYYCAVRSKNGAGYGFWYEARLYGYWGQGTQVTVSS
notes: Camel single-domain antibody against IGF-1R
In experiment [1], B4 showed a Kd of 0.346 nM, a koff of 0.000749 s⁻¹ and a kon of 2.17e+06 M⁻¹ s⁻¹.

B5: IG05-hu3 (VHH)
VHH: EVQLVESGGGLVQPGGSLRLSCTASGLTFGTFGMAWFRQAPGKEREGVSAISASSGRTYYADSVKGRFTISRDNSKNTLYLQMDALRAEDTAVYYCAVRSKNGAGYGFWYEARLYGYWGQGTLVTVSS
notes: Humanized IG05
For the molecule B5, in experiment [1], the Kd was 0.403 nM, the koff turned out to be 0.000723 s⁻¹ and the kon came out at 1.79e+06 M⁻¹ s⁻¹.

B6: IG05-hu4 (VHH)
VHH: EVQLVESGGGLVQPGGSLRLSCAASGLTFGTFGMAWFRQAPGKEREGVSAISASSGRTYYADSVKGRFTISRDNSKNTLYLQMNSLRAEDTAVYYCAVRSKNGAGYGFWYEARLYGYWGQGTLVTVSS
notes: Humanized IG05
On to B6, for which, in experiment [1], binding was characterised by a dissociation constant (Kd) of 0.507 nM, the koff stood at 0.000882 s⁻¹ and the kon came out at 1.74e+06 M⁻¹ s⁻¹.

B7: IG06-hu4 (VHH)
VHH: EVQLVESGGGLVQPGGSLRLSCAASRYIVSTRCLGWVRQAPGKEREEVSTIDTAGRPTYADSVKGRFTISRDGAKNFLYLQMNSLRAEDTAVYYCAAASSDNCRYFPSNLGQGTLVTVSS
In the case of B7, in experiment [1], binding was characterised by a dissociation constant (Kd) of 4 nM, the koff amounted to 0.00299 s⁻¹ and the kon was 748000 M⁻¹ s⁻¹.

B8: IG06-hu6 (VHH)
VHH: EVQLVESGGGLVQPGGSLRLSCAASRYIVSTRCLGWVRQAPGNEREEVSTIDTAGRPTYADSVKGRFTISRDNSKNTLYLQMNSLRAEDTAVYYCAAASSDNCRYFPSNLGQGTLVTVSS
B8: in experiment [1], binding was characterised by a dissociation constant (Kd) of 1.55 nM, the off-rate constant (koff) is 0.00226 s⁻¹ and the kon was 1.46e+06 M⁻¹ s⁻¹.

B9: IG06-hu1 (VHH)
VHH: EVQLVESGGGLVQPGGSLRLSCAASRYIVSTRCLGWVRQAPGKEREEVSTIDTAGRPTYADSVKGRFTISRDNSKNTLYLQMNSLRAEDTAVYYCAAASSDNCRYFPSNWGQGTLVTVSS
In experiment [1], B9 returned a dissociation constant Kd of 29.3 nM, a koff of 0.0265 s⁻¹ and a kon of 905000 M⁻¹ s⁻¹.

B10: IG06-hu3 (VHH)
VHH: EVQLVESGGGLVQPGGSLRLSCAASRYIVSTRCLGWVRQAPGKEREEVSTIDTAGRPTYADSVKGRFTISRDGAKNFLYLQMNSLRAEDTAVYYCAAASSDNCRYFPSNWGQGTLVTVSS
In the case of B10, in experiment [1], binding was characterised by a dissociation constant (Kd) of 27.3 nM, the koff was 0.0231 s⁻¹ and the kon is 847000 M⁻¹ s⁻¹.

B11: IG06-hu5 (VHH)
VHH: EVQLVESGGGLVQPGGSLRLSCAASRYIVSTRCLGWVRQAPGKEREEIATIDTAGRPTYADSVKGRFTISRDGAKNFLYLQMNSLRAEDTAVYYCAAASSDNCRYFPSNLGQGTLVTVSS
Regarding B11, in experiment [1], the Kd was 2.67 nM, the dissociation rate constant (koff) came out at 0.0024 s⁻¹ and the kon was 899000 M⁻¹ s⁻¹.

B12: IG06-hu2 (VHH)
VHH: EVQLVESGGGLVQPGGSLRLSCAASRYIVSTRCLGWVRQAPGKEREEVSTIDTAGRPTYADSVKGRFTISRDNSKNFLYLQMNSLRAEDTAVYYCAAASSDNCRYFPSNWGQGTLVTVSS
As to B12, in experiment [1], the Kd was 34.7 nM, the koff stood at 0.0277 s⁻¹ and the kon came out at 800000 M⁻¹ s⁻¹.

B13: IG06 (VHH)
VHH: QVQLVESGGGSVQAGGSLRLSCAASRYIVSTRCLGWVRQAPGNEREEIATIDTAGRPTYADSVKGRFTISKDGAKNFLYLQMNSLKPEDTAMYYCAAASSDNCRYFPSNLGQGTQVTVSS
notes: as for B4
In experiment [1], B13 yielded a Kd of 0.889 nM, a koff of 0.000675 s⁻¹ and a kon of 759000 M⁻¹ s⁻¹.

B14: PHP1003 (Suzhou PRO-HEAL, CN113512116) (antibody, V domains shown)
VH: QVQLQESGPGLVKPSGTLSLTCAVSGGSISSSNWWSWVRQPPGKGLEWIGEIYHSGSTNYNPSLKSRVTISVDKSKNQFSLKLSSVTAADTAVYYCARWTGRTDAFDIWGQGTMVTVSS
VL: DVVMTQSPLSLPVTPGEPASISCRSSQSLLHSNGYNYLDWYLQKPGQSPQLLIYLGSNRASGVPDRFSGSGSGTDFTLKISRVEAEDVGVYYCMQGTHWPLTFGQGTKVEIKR
notes: Positive control anti-IGF-1R antibody
In the case of B14, the “IC50 (nM), inhibition of IGF1-induced pAKT signaling in A549 cells” value in experiment [2] was found to be 33.6 nM. In addition, the “IC50 (nM), inhibition of IGF1-induced pAKT signaling in C2C12 cells” value in experiment [3] was determined as 4240 nM. In experiment [4], this molecule showed an equilibrium dissociation constant (Kd) of 0.262 nM, a dissociation rate constant (koff) of 0.00107 s⁻¹ and a kon of 4.1e+06 M⁻¹ s⁻¹. For the same molecule, in experiment [5], the affinity, expressed as Kd, was 0.337 nM; the off-rate (koff) worked out at 0.00112 s⁻¹; the kon stood at 3.32e+06 M⁻¹ s⁻¹.
